Patent US20220267415A1 (University of Texas, published 2022)

Assays:
[1] = target: B.1.526 Iota variant spike protein on recombinant USA-WA1/2020 virus (SARS-CoV-2); experiment: cell-based or functional assay
[2] = target: T1, wild type RBD protein (generated as in Ku et al. 2021) (SARS-CoV-2, UniProt P0DTC2 319-541); experiment: binding KD on RBD protein, generally as Example 4
[3] = target: T1, wild type RBD protein (generated as in …); experiment: BLI competition, RBD on sensor, antibody then ACE2; competitor ACE2
[4] = target: T1, wild type RBD protein (generated as in …)

B1: anti-SARS-CoV2-14 IgG (full lambda light chain) (antibody, V domains shown)
VH: EVQLQQSGPGLVKPSQTLSLTCAISGDSVSSNSAAWNWIRQSPSRGLEWLGRTYYRSKWYNDYAVSVKSRITINPDTSKNQFSLQLNSVTPEDTAVYYCAREEQQLVHDYYYYGMDVWGQGTMVTVSS
VL: QAVVTQPASVSGSPGQSITISCTGTSSDIGAYNYISWYQQHPGKAPKLIIYEVSNRPSGISYRFSGSKSGNTASLTISGLQAEDEANYYCSSYAGSISFGGGTKVTVL
B1 was tested, and the “Neutralization EC50 (PRNT)” value [1] was 170 µg/mL.

B2: anti-SARS-CoV2-14 IgM (full lambda light chain) (antibody)
heavy: EVQLQQSGPGLVKPSQTLSLTCAISGDSVSSNSAAWNWIRQSPSRGLEWLGRTYYRSKWYNDYAVSVKSRITINPDTSKNQFSLQLNSVTPEDTAVYYCAREEQQLVHDYYYYGMDVWGQGTMVTVSSGSASAPTLFPLVSCENSPSDTSSVAVGCLAQDFLPDSITFSWKYKNNSDISSTRGFPSVLRGGKYAATSQVLLPSKDVMQGTDEHVVCKVQHPNGNKEKNVPLPVIAELPPKVSVFVPPRDGFFGNPRKSKLICQATGFSPRQIQVSWLREGKQVGSGVTTDQVQAEAKESGPTTYKVTSTLTIKESDWLSQSMFTCRVDHRGLTFQQNASSMCVPDQDTAIRVFAIPPSFASIFLTKSTKLTCLVTDLTTYDSVTISWTRQNGEAVKTHTNISESHPNATFSAVGEASICEDDWNSGERFTCTVTHTDLPSPLKQTISRPKGVALHRPDVYLLPPAREQLNLRESATITCLVTGFSPADVFVQWMQRGQPLSPEKYVTSAPMPEPQAPGRYFAHSILTVSEEEWNTGETYTCVVAHEALPNRVTERTVDKSTGKPTLYNVSLVMSDTAGTCY
light: QAVVTQPASVSGSPGQSITISCTGTSSDIGAYNYISWYQQHPGKAPKLIIYEVSNRPSGISYRFSGSKSGNTASLTISGLQAEDEANYYCSSYAGSISFGGGTKVTVLGQPKAAPSVTLFPPSSEELQANKATLVCLISDFYPGAVTVAWKADSSPVKAGVETTTPSKQSNNKYAASSYLSLTPEQWKSHRSYSCQVTHEGSTVEKTVAPTECS
chain: not shown
With B2 the Kd [2] was under 0.001 nM, the EC50 [3] was 0.86 nM and the “Fold-Increase in potency of IgM over IgG” value [1] was 5300 fold. The “Neutralization EC50 (PRNT)” value [1] was 0.032 µg/mL and the “EC50 (read off the curve)” value [4] was about 0.9 nM.
